# Assay results published in paper PMC4018254, “Bacterial Magnetosome Biomineralization - A Novel Platform to Study Molecular Mechanisms of Human CDF-Related Type-II Diabetes” (PLoS ONE, 2014).
# Numbering of substitutions follows the chain as printed. In names and notes the source's numbering stands.
# B1: MamM-CTD (cytosolic C-terminal domain of the magnetosome CDF transporter MamM), wild type (domain or fragment, Magnetospirillum gryphiswaldense)
# chain: EAVQNRIVEAAERVPGVRGVIHLRARYVGQDIWADMIIGVDPENTVEQAHEICEAVQAAVCGKIRRIESLHVSAEAREIGDTTKPSFSDQPLSFDEVMLSKVDN
# notes: MamM, cation diffusion facilitator of Magnetospirillum gryphiswaldense, cytosolic C-terminal domain (CTD); also called wild-type MamM-CTD; apo-MamM-CTD; source: recombinant, purified; expression and purification 'performed as previously described [20], [29], [30]'
# B2: MamM-CTD V260R mutant (domain or fragment, Magnetospirillum gryphiswaldense)
# chain: B1 chain with V46R
# notes: MamM, cation diffusion facilitator of Magnetospirillum gryphiswaldense, cytosolic C-terminal domain (CTD) with V260R; The mutation mimics the R325 allele of human ZnT-8; source: recombinant, purified; expression, purification and site-directed mutagenesis 'performed as previously described [20], [29], [30]'
# B3: MamM-CTD V260W mutant (domain or fragment, Magnetospirillum gryphiswaldense)
# chain: B1 chain with V46W
# notes: MamM, cation diffusion facilitator of Magnetospirillum gryphiswaldense, cytosolic C-terminal domain (CTD) with V260W; The mutation mimics the W325 allele of human ZnT-8; source: recombinant, purified; expression, purification and site-directed mutagenesis 'performed as previously described [20], [29], [30]'
# Biological target: the molecule itself
# Assay: SEC; Superdex200; elution volumes of the mutants compared with wild-type MamM-CTD; self-association (dimer)
row,Protein,stoichiometry N
1,B1,2
2,B2,2
3,B3,2
